Targets include SARS-CoV-2 Alpha株S-ECD蛋白 (SARS-CoV-2 Alpha株 (B.1.1.7), UniProt P0DTC2 14-1213); SARS-CoV-2 Delta株S-ECD蛋白 (SARS-CoV-2 Delta株 (B.1.617.2), UniProt P0DTC2 14-1213); SARS-CoV-2 Gamma株S-ECD蛋白 (SARS-CoV-2 Gamma株 (P.1), UniProt P0DTC2 14-1213); SARS-CoV-2 Beta株S-ECD蛋白 (SARS-CoV-2 Beta株 (B.1.351), UniProt P0DTC2 14-1213).

B1: 抗SARS-CoV-2全人源单克隆抗体ZWC6 (antibody, human IgG1, kappa, V domains shown)
VH: EVQLVESGGGVVQPGTSLRLSCAASGFSFSHYVMYWVRQAPGKGLDWVAIISFDGSSQYYADSVKGRFTISRDNSKDTLYLQMHSLRPEDTAVYYCAIHGGTYYYDKNILAWGQGTLVTVSS
VL: AIRMTQSPPTLSLSPGERATLSCRASQSVTNYLVWYQQKPGQAPRLLIYDTFNRATGIPARFSGSGSGTDFTLTISSLEPEDFAVYYCQQRSNWPPTFGQGTKVDIKR
In the case of B1, the Kd (commonly the constant that tells how readily two partners part at equilibrium) with SARS-CoV-2 Alpha株S-ECD蛋白 turned out to be 0.938 nM; with SARS-CoV-2 Delta株S-ECD蛋白, 4.21 nM; with SARS-CoV-2 Gamma株S-ECD蛋白 it was 1.2 nM; in the test with SARS-CoV-2 Beta株S-ECD蛋白, 0.658 nM. Moreover, the koff (in general, a measure of how fast the partners let go of each other) with SARS-CoV-2 Alpha株S-ECD蛋白 came out at 0.000164 s⁻¹; with SARS-CoV-2 Delta株S-ECD蛋白, 0.000305 s⁻¹; with SARS-CoV-2 Gamma株S-ECD蛋白 it was 0.000182 s⁻¹; with SARS-CoV-2 Beta株S-ECD蛋白, 0.000121 s⁻¹. For the same molecule, the association rate constant (kon) (in general, the second-order rate constant of association) with SARS-CoV-2 Alpha株S-ECD蛋白 was 175000 M⁻¹ s⁻¹; with SARS-CoV-2 Delta株S-ECD蛋白, 72400 M⁻¹ s⁻¹; with SARS-CoV-2 Gamma株S-ECD蛋白, 151000 M⁻¹ s⁻¹; with SARS-CoV-2 Beta株S-ECD蛋白, 184000 M⁻¹ s⁻¹.

Values taken from patent CN113735970A (INST MILITARY MEDICINE ACADEMY MILITARY SCIENCES PLA, dated 2021).
